Like-named read-outs stand apart in the source and are kept apart here. Groups on a side chain read outwards from the residue. No end group written: not given here. NSMP = not defined here
Columns and labels:
[1] = biological target: T1, human Aβ (1-40) peptide (human); experiment: SPR Scatchard, higher affinity (bivalent)
T1 construct: also called Aβ1-40 fibers
Experimental: (§1) Binders with fast kinetics were analyzed by fitting the concentration-dependent sensor responses at equilibrium (adsorption-isotherms). KD values were calculated from the Biacore sensograms based on the total Fab concentration as determined by a protein assay. […] Briefly, time-dependent protein binding to Aβ1-40 fibers immobilized on the Biacore chip was measured during the association phase under mass-limited conditions at different flow rates of the analyte solution.
(§2) KD values of IgG binding to Aβ1-40 and Aβ1-42 fibers were determined in the Biacore. Briefly, a kinetic model for the stepwise formation of a bivalent complex was used, and KD values were calculated by Scatchard type analysis of equilibrium binding. Due to the very slow association process at low antibody concentration (several hours to reach equilibrium) equilibrium binding data were obtained by extrapolation of the association curves to long time intervals. The on- and off rates for the formation of the monovalent and bivalent complex were determined via the curve fit procedure and used for the extrapolation. Based on these Req values a Scatchard analysis was performed and KD values for the formation of the monovalent and the bivalent complex were determined.

[2] = biological target: T2, Aβ (1-42) peptide (human); experiment: SPR Scatchard, higher affinity (bivalent)
T2 construct: also called Aβ1-42 fibers; Aβ4
Experimental: as §1, §2

[3] = biological target: T3, BSA-conjugated Aβ heptapeptide LVFFAEC (reading uncertain; also: BSA conjugate); experiment: ELISA
T3 construct: also called Peptide 17-22
T3 peptide: LVFFAEC([NSMP-BSA])
Experimental: (§3) 50 μl of NSMP activated BSA (6.7 mg/ml) was diluted with 50 μl of PBS, 0.1% sodium azide and 10 μl of peptide solution (1 mM in DMSO) was added. As negative control activated BSA was mock-treated without peptide addition. After 4 hrs at room temperature the reaction was stopped by addition of 10 μl of 10 mM Cystein. An aliquot of the conjugate reaction mixture was diluted 1:100 with 0.1M sodium bicarbonate buffer and immediately filled into the wells (100 μl) of ELISA plates (Nunc Immuno-Plate). After standing 16 hrs at 4° C. 100 μl blocking buffer (as above) was added to each well and incubated for another 30 minutes. The plates were washed with 2×300 μl/well TBST (as above) and filled with 100 μl antibody at 10 μg/ml or 2 μg/ml in blocking buffer. The plates were kept 16 hours at 4° C. and washed with 2×300 μl TBST. 100 μl/well HRP-conjugated anti-human Ig H+L (Pierce, dilution 1:1000 with blocking buffer) was added and incubated for 1 hour at ambient temperature. The plates were washed with 3×300 μl/well TBST. Colour development was started by addition of 100 μl tetra-methyl benzidine/hydrogen peroxide reagent.

[4] = biological target: T4, BSA-conjugated Aβ heptapeptide FFAEDVC (C-terminal Cys coupled to NSMP-activated BSA); experiment: ELISA
T4 construct: also called Peptide 19-24
T4 peptide: FFAEDVC
Experimental: as §3

[5] = biological target: T5, BSA-conjugated Aβ heptapeptide VFFAEDC (C-terminal Cys coupled to NSMP-activated BSA); experiment: ELISA
T5 construct: also called Peptide 18-23
T5 peptide: VFFAEDC
Experimental: as §3

[6] = biological target: T6, BSA-conjugated Aβ heptapeptide AEFRHDC (C-terminal Cys coupled to NSMP-activated BSA); experiment: ELISA
T6 construct: also called Peptide 2-7
T6 peptide: AEFRHDC
Experimental: as §3

[7] = biological target: T1, human Aβ (1-40) peptide; experiment: SPR, immobilized fibers
Experimental: (§4) Biacore2000 and Biacore3000 instruments were used for these measurements. Aβ1-40 and Aβ1-42 fibers were generated in vitro by incubation of synthetic peptides at a concentration of 200 μg/ml in 10 mM Na-acetate buffer (pH 4.0) for three days at 37° C. […] For binders with slow kinetics KD values were calculated by curve fitting of the time-dependent sensor responses, i.e. from the ratio of koff/kₒₙ. Binders with fast kinetics were analyzed by fitting the concentration-dependent sensor responses at equilibrium (adsorption-isotherms). KD values were calculated from the Biacore sensograms based on the total Fab concentration as determined by a protein assay. […] Briefly, time-dependent protein binding to Aβ1-40 fibers immobilized on the Biacore chip was measured during the association phase under mass-limited conditions at different flow rates of the analyte solution.

[8] = biological target: T2, Aβ (1-42) peptide; experiment: SPR, immobilized fibers
Experimental: as §4

[9] = biological target: T1, human Aβ (1-40) peptide; experiment: SPR, immobilized fibers; remark: listed apart in the source
Experimental: as §4

[10] = biological target: T2, Aβ (1-42) peptide; experiment: SPR, immobilized fibers; remark: listed apart in the source
Experimental: as §4

[11] = biological target: T3, BSA-conjugated Aβ heptapeptide LVFFAEC; experiment: ELISA
Experimental: as §3

[12] = biological target: T4, BSA-conjugated Aβ heptapeptide FFAEDVC; experiment: ELISA
Experimental: as §3

[13] = biological target: T5, BSA-conjugated Aβ heptapeptide VFFAEDC; experiment: ELISA
Experimental: as §3

[14] = biological target: T6, BSA-conjugated Aβ heptapeptide AEFRHDC; experiment: ELISA
Experimental: as §3

[15] = biological target: T1, human Aβ (1-40) peptide; experiment: SPR, immobilized fibers; remark: listed apart in the source
[16] = biological target: T1, human Aβ (1-40) peptide; experiment: SPR, immobilized fibers; remark: listed apart in the source
[17] = biological target: T2, Aβ (1-42) peptide; experiment: SPR, immobilized fibers; remark: listed apart in the source
[18] = biological target: T1, human Aβ (1-40) peptide; experiment: SPR, immobilized fibers, equilibrium responses
Experimental: as §4

[19] = biological target: T2, Aβ (1-42) peptide; experiment: SPR, immobilized fibers, equilibrium responses
Experimental: as §4

Row | Binder | Kd [1] [nM] | Kd [2] [nM] | OD ratio 17-22/BSA [3] | Peptide-ratio 17-22/2-7 [3] | OD ratio 19-24/BSA [4] | Peptide-ratio 19-24/2-7 [4] | OD ratio 18-23/BSA [5] | Peptide-ratio 18-23/2-7 [5] | OD ratio 2-7/BSA [6] | also measured
1 | MS-R #7.9.H7 IgG1 (antibody, V domains shown, full-length human IgG1; also called MAB 31; MS-Roche IgG #7.9.H7) VH: QVELVESGGGLVQPGGSLRLSCAASGFTFSSYAMSWVRQAPGKGLEWVSAINASGTRTYYADSVKGRFTISRDNSKNTLYLQMNSLRAEDTAVYYCARGKGNTHKPYGYVRYFDVWGQGTLVTVSS VL: DIVLTQSPATLSLSPGERATLSCRASQSVSSSYLAWYQQKPGQAPRLLIYGASSRATGVPARFSGSGSGTDFTLTISSLEPEDFATYYCLQIYNMPITFGQGTKVEIKR | 0.25 to 0.69 | 0.24 to 0.7 | 5 | 0.17 | 10 | 0.33 | 16 | 0.53 | 30 | –
2 | MS-R #7.12 IgG1 (antibody, V domains shown, full-length human IgG1) VH: QVELVESGGGLVQPGGSLRLSCAASGFTFSSYGMSWVRQAPGKGLEWVSNISGSGSSTYYADSVKGRFTISRDNSKNTLYLQMNSLRAEDTAVYYCARGKGNTHKPYGYVRYFDVWGQGTLVTVSS VL: DIVLTQSPATLSLSPGERATLSCRASQYVSSPYLAWYQQKPGQAPRLLISGSSNRATGVPARFSGSGSGTDFTLTISSLEPEDFAVYYCLQLYNIPNTFGQGTKVEIKR | – | – | 11 | 0.58 | 11 | 0.58 | 13 | 0.68 | 19 | Kd [7]: 3.1 nM; Kd [8]: 13.7 nM; Kd [9]: 3.1 nM; Kd [10]: 13.7 nM
3 | MS-R #7.11 IgG1 (antibody, V domains shown, full-length human IgG1) VH: QVELVESGGGLVQPGGSLRLSCAASGFTFSSYAMSWVRQAPGKGLEWVSAISGSGGSTYYADSVKGRFTISRDNSKNTLYLQMNSLRAEDTAVYYCARGKGNTHKPYGYVRYFDVWGQGTLVTVSS VL: DIVLTQSPATLSLSPGERATLSCRASQSVSSSYLAWYQQKPGQAPRLLIYGASSRATGVPARFSGSGSGTDFTLTISSLEPEDFATYYCQQVYSPPHTFGQGTKVEIKR | – | – | – | – | – | – | – | – | – | Kd [7]: 2.3 nM; Kd [8]: 5.7 nM; Kd [9]: 2.3 nM; Kd [10]: 5.7 nM
4 | MS-R IgG1 7.9.H3 (antibody, V domains shown, full-length human IgG1; also called 7.9H3 IgG) VH: QVELVESGGGLVQPGGSLRLSCAASGFTFSSYAMSWVRQAPGKGLEWVSAINYQGNRKYYADSVKGRFTISRDNSKNTLYLQMNSLRAEDTAVYYCARGKGNTHKPYGYVRYFDVWGQGTLVTVSS VL: DIVLTQSPATLSLSPGERATLSCRASQSVSSSYLAWYQQKPGQAPRLLIYGASSRATGVPARFSGSGSGTDFTLTISSLEPEDFATYYCLQIYNMPITFGQGTKVEIK | 0.1 to 0.5 | 0.1 to 0.4 | 6 | 0.46 | 6 | 0.46 | 8 | 0.62 | 13 | –
5 | MS-Roche #7.9 Fab (Fab, V domains shown, VL entry is that of the H-CDR2 derivative 7.9H7) VH: not shown VL: DIVLTQSPATLSLSPGERATLSCRASQSVSSSYLAWYQQKPGQAPRLLIYGASSRATGVPARFSGSGSGTDFTLTISSLEPEDFATYYCLQIYNMPITFGQGTKVEIKR | – | – | – | – | – | – | – | – | – | OD ratio 17-22/BSA [11]: 9; Peptide-ratio 17-22/2-7 [11]: 0.32; OD ratio 19-24/BSA [12]: 8; Peptide-ratio 19-24/2-7 [12]: 0.29; OD ratio 18-23/BSA [13]: 13; Peptide-ratio 18-23/2-7 [13]: 0.46; OD ratio 2-7/BSA [14]: 28; fold improvement of affinity over the MS-Roche-7 parental Fab [15]: > 35 fold; Kd [16]: 31 nM; Kd [17]: 93 nM
6 | MSR 7.9.H2 IgG1 (antibody, V domains shown, full-length human IgG1) VH: QVELVESGGGLVQPGGSLRLSCAASGFTFSSYAMSWVRQAPGKGLEWVSAINADGNRKYYADSVKGRFTISRDNSKNTLYLQMNSLRAEDTAVYYCARGKGNTHKPYGYVRYFDVWGQGTLVTVSS VL: DIVLTQSPATLSLSPGERATLSCRASQSVSSSYLAWYQQKPGQAPRLLIYGASSRATGVPARFSGSGSGTDFTLTISSLEPEDFATYYCLQIYNMPITFGQGTKVEIKR | 0.12 to 0.42 | 0.11 to 0.38 | 5 | 0.38 | 6 | 0.46 | 8 | 0.62 | 13 | –
7 | MS-R IgG1 3.6.H5 × 3.6.L2 (antibody, V domains shown, full-length human IgG1; VH entry starts at QLVESGG) VH: ELVESGGGLVQPGGSLRLSCAASGFTFSSYAMSWVRQAPGKGLEWVSAISESGKTKYYADSVKGRFTISRDNSKNTLYLQMNSLRAEDTAVYYCARLTHYARYYRYFDVWGQGTLVTVSS VL: DIVLTQSPATLSLSPGERATLSCRASQFLSRYYLAWYQQKPGQAPRLLIYGASSRATGVPARFSGSGSGTDFTLTISSLEPEDFAVYYCQQTYNYPPTFGQGTKVEIKR | 0.2 to 1.03 | 0.2 to 0.95 | 7 | 0.64 | 8 | 0.73 | 9 | 0.82 | 11 | –
8 | MSR 3.4.H7 IgG1 (antibody, V domains shown, full-length human IgG1) VH: QVQLVESGGGLVQPGGSLRLSCAASGFTFSSYAMSWVRQAPGKGLEWVSVISETGKNIYYADSVKGRFTISRDNSKNTLYLQMNSLRAEDTAVYYCARLTHYARYYRYFDVWGQGTLVTVSS VL: not shown | 0.1 to 0.3 | 0.1 to 0.3 | 3 | 0.14 | 15 | 0.68 | 16 | 0.73 | 22 | –
9 | MS-R IgG1 8.2.H2 (antibody, V domains shown, full-length human IgG1) VH: QVELVESGGGLVQPGGSLRLSCAASGFTFSSYAMSWVRQAPGKGLEWVSAISRTGSKTYYADSVKGRFTISRDNSKNTLYLQMNSLRAEDTAVYYCARLLSRGYNGYYHKFDVWGQGTLVTVSS VL: not shown | 0.16 to 1 | 0.12 to 0.92 | 10 | 0.56 | 14 | 0.78 | 15 | 0.83 | 18 | –
10 | MS-Roche #8.2.H1 Fab (Fab, V domains shown) VH: QVQLVESGGGLVQPGGSLRLSCAASGFTFSSYAMSWVRQAPGKGLEWVSAISITGRRKYYADSVKGRFTISRDNSKNTLYLQMNSLRAEDTAVYYCARLLSRGYNGYYHKFDVWGQGTLVTVSS VL: not shown | – | – | – | – | – | – | – | – | – | OD ratio 17-22/BSA [11]: 7; Peptide-ratio 17-22/2-7 [11]: 0.34; OD ratio 19-24/BSA [12]: 20; Peptide-ratio 19-24/2-7 [12]: 0.94; OD ratio 18-23/BSA [13]: 23; Peptide-ratio 18-23/2-7 [13]: 1.05; OD ratio 2-7/BSA [14]: 22; Kd [18]: 1.6 nM; Kd [19]: 2.1 nM
